Consider one variant from IntAct's records for PubMed 19416828.

B1: Splicing factor rtf2 (Schizosaccharomyces pombe (strain ATCC 38366 / 972)), Q10154 (parent)
chain: MGNDGGSLPTRNELVKEPGKVPPLDIDFKRSVKSSQFSQCAITDEPLYPPIVSCGLGKLYNKASILQMLLDRSSVPKSPSHIKSLKDVVQLQVELDDSGKVLWLCPITRHVMSDTYQFAYIVPCGHVFEYSALKQFGEKMCFQCNQVYEEKDVIPINPNAEQLKTLSKRLLDLALSEKTHSLNKASKKSNKNGDKKRKHVSKSNSKHAKHELRTNRMLDGENVKSETSVTDMERVKRVKI
partner: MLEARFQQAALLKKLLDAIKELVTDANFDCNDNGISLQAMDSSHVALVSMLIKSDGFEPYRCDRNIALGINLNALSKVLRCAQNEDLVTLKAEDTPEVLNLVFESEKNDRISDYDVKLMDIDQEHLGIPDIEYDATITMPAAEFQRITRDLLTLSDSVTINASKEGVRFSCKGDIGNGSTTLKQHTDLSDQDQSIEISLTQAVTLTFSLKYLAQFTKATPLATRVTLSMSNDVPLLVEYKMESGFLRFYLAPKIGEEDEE

In the experiment the parent is B1. The conditions noted are these: with pcna_schpo pcn1, Q03392.
Consider C141G, for which the “effect of a mutation on the interaction” value was “disrupting interaction”.
